Where a chain is given by its changes, count along the chain named. Names and notes keep the numbering of the source.
T1: EsCas13d, nuclease-dead (Eubacterium siraeum, UniProt B0MS50, R295A;H300A;R849A;H854A)
T1 sequence: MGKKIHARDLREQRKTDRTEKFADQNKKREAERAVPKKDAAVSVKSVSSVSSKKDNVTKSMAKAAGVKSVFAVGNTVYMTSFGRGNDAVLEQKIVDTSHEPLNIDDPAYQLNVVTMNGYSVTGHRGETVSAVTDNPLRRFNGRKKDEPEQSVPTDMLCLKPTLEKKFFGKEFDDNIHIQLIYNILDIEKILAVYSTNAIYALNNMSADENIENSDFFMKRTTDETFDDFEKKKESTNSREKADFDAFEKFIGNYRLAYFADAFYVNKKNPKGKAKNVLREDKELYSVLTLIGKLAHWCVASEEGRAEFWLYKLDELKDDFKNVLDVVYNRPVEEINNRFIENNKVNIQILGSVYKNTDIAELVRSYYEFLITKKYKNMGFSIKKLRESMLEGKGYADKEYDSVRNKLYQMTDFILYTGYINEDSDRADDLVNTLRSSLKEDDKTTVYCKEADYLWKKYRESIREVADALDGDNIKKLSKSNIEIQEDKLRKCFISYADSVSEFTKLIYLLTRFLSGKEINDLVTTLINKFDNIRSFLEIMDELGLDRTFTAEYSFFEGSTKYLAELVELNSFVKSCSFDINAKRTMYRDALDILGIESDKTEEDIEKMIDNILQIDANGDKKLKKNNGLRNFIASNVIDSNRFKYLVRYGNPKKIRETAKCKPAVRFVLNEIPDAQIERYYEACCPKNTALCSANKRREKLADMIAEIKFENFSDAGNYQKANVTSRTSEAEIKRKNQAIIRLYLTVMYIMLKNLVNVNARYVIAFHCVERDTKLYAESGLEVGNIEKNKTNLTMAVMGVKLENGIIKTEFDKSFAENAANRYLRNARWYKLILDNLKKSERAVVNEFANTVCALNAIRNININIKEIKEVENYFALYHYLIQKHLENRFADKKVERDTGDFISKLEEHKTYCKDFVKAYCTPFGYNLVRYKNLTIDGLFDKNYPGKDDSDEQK

B1: target 1 C4U,A14G (mixed)
RNA 1: CACCCGUGCAAAAAUGCAGGGGUCUAAAACUGAGCGGAUAACCUCUCUAUGG
RNA 2: GGGAAUGGAUCCACAUCUACGAAUUCGUACCAUAGAGGGGUUAUCCGUUCACCGAGAUCGGAAGAGCACACGU
B2: target 1 insG 3' of 10,insA 3' of 8 (mixed)
RNA 1: B1 RNA 1
RNA 2: GGGAAUGGAUCCACAUCUACGAAUUCGUACCAUAGAGAGGUUGAUACCGCUCACCGAGAUCGGAAGAGCACACGU
B3: target 1 U8A,C21A (mixed)
RNA 1: B1 RNA 1
RNA 2: B1 RNA 2 with C31A, G38A, U44A, U48C
B4: target 1 insC 3' of 20,insG 3' of 14 (mixed)
RNA 1: B1 RNA 1
RNA 2: GGGAAUGGAUCCACAUCUACGAAUUCGUACCACUAGAGAGGGUUAUCCGCUCACCGAGAUCGGAAGAGCACACGU
B5: target 1 insC 3' of 20,insA 3' of 12 (mixed)
RNA 1: B1 RNA 1
RNA 2: B4 RNA 2 with G42A
B6: target 1 insA 3' of 8 (mixed)
RNA 1: B1 RNA 1
RNA 2: GGGAAUGGAUCCACAUCUACGAAUUCGUACCAUAGAGAGGUUAUACCGCUCACCGAGAUCGGAAGAGCACACGU
B7: target 1 insU 3' of 20,insA 3' of 13 (mixed)
RNA 1: B1 RNA 1
RNA 2: B4 RNA 2 with C33U, G41A
B8: target 1 U3C,C6G (mixed)
RNA 1: B1 RNA 1
RNA 2: B1 RNA 2 with G38A, C46G, U48C, U49C
B9: target 1 insA 3' of 21,insA 3' of 6 (mixed)
RNA 1: B1 RNA 1
RNA 2: B4 RNA 2 with C33A, G42U, U44A, A45U, U46C, C48A
B10: target 1 insC 3' of 20,insG 3' of 3 (mixed)
RNA 1: B1 RNA 1
RNA 2: B4 RNA 2 with G42U, U44A, A45U, U46C, C48G, G49C, C50U, U51G
B11: target 1 insA 3' of 13,insU 3' of 1 (mixed)
RNA 1: B1 RNA 1
RNA 2: GGGAAUGGAUCCACAUCUACGAAUUCGUACCAUAGAGAGAGUUAUCCGCUCAUCCGAGAUCGGAAGAGCACACGU
B12: target 1 A9U,A14G (mixed)
RNA 1: B1 RNA 1
RNA 2: B1 RNA 2 with A43U, U48C
B13: target 1 insA 3' of 15,insG 3' of 4 (mixed)
RNA 1: B1 RNA 1
RNA 2: B11 RNA 2 with G39A, A40G, U50G, C51U, A52C, U53A
B14: target 1 insA 3' of 22,insU 3' of 15 (mixed)
RNA 1: B1 RNA 1
RNA 2: B4 RNA 2 with C31A, A32C, C33A, A39U, G40A
B15: target 1 U3A,G17U (mixed)
RNA 1: B1 RNA 1
RNA 2: B1 RNA 2 with G35U, G38A, U48C, U49A
B16: target 1 insC 3' of 22,insU 3' of 5 (mixed)
RNA 1: B1 RNA 1
RNA 2: B4 RNA 2 with A32C, C33A, G42U, U44A, A45U, U46C, C48G, G49U
B17: target 1 G12A,G17U (mixed)
RNA 1: B1 RNA 1
RNA 2: B1 RNA 2 with G35U, G38A, G40A, U48C
B18: target 1 insU 3' of 2 (mixed)
RNA 1: B1 RNA 1
RNA 2: B6 RNA 2 with A45C, C47G, G48C, C49U, U50C, C51U
B19: target 1 insC 3' of 11,insG 3' of 3 (mixed)
RNA 1: B1 RNA 1
RNA 2: B11 RNA 2 with A40G, G41U, U42C, C51G, A52C, U53A
B20: target 1 insG 3' of 8,insG 3' of 1 (mixed)
RNA 1: B1 RNA 1
RNA 2: B11 RNA 2 with A40G, G41U, U43A, A44U, U45G, U53G
B21: target 1 U3A,C22A (mixed)
RNA 1: B1 RNA 1
RNA 2: B1 RNA 2 with C30A, G38A, U48C, U49A
B22: target 1 U10A,A18U (mixed)
RNA 1: B1 RNA 1
RNA 2: B1 RNA 2 with A34U, G38A, U42A, U48C
B23: target 1 U10A,G15U (mixed)
RNA 1: B1 RNA 1
RNA 2: B1 RNA 2 with G37U, G38A, U42A, U48C
B24: target 1 A14G,A16G (mixed)
RNA 1: B1 RNA 1
RNA 2: B1 RNA 2 with A36G, U48C
B25: target 1 insU 3' of 15,insC 3' of 5 (mixed)
RNA 1: B1 RNA 1
RNA 2: B11 RNA 2 with A38U, G39A, A40G, U50C, C51U, A52C, U53A
B26: target 1 insC 3' of 22,insA 3' of 7 (mixed)
RNA 1: B1 RNA 1
RNA 2: B4 RNA 2 with A32C, C33A, G42U, U44A, A45U, U46C, C47A
B27: target 1 complement block 5-8 (mixed)
RNA 1: B1 RNA 1
RNA 2: B1 RNA 2 with G38A, U44A, C45G, C46G, G47C, U48C
B28: target 1 insG 3' of 22 (mixed)
RNA 1: B1 RNA 1
RNA 2: GGGAAUGGAUCCACAUCUACGAAUUCGUACGCAUAGAGAGGUUAUCCGCUCACCGAGAUCGGAAGAGCACACGU
B29: target 1 C6G,G15A (mixed)
RNA 1: B1 RNA 1
RNA 2: B1 RNA 2 with G37A, G38A, C46G, U48C
B30: target 1 insC 3' of 22,insA 3' of 4 (mixed)
RNA 1: B1 RNA 1
RNA 2: B4 RNA 2 with A32C, C33A, G42U, U44A, A45U, U46C, C48G, G49C, C50A
B31: target 1 insU 3' of 17,insC 3' of 8 (mixed)
RNA 1: B1 RNA 1
RNA 2: B2 RNA 2 with A36U, G37A, A38G, G39A, U41G, G43U, A46C
B32: target 1 C4G,G17U (mixed)
RNA 1: B1 RNA 1
RNA 2: B1 RNA 2 with G35U, G38A, U48G
B33: target 1 insC 3' of 20,insA 3' of 13 (mixed)
RNA 1: B1 RNA 1
RNA 2: B4 RNA 2 with G41A
B34: target 1 insU 3' of 12,insU 3' of 4 (mixed)
RNA 1: B1 RNA 1
RNA 2: B11 RNA 2 with A40G, G41U, C51U, A52C, U53A

The binders below were run against T1, EsCas13d, nuclease-dead (assay: crRNA (strand 1, pre-loaded); Mg2+; 40 mM Tris-HCl pH 7.5, 150 mM NaCl, 6 mM MgCl2, 1 mM DTT, 0.1% Tween-20, 0.2 mg/ml BSA; 25 C; 10 min per concentration, then washed). Conditions: tags: His6-TwinStrep-SUMO cleaved; N-terminal SNAP kept (SNAP-Surface 488); label: 3' end held by stalled T7 RNA polymerase.

Row | Binder | Kd [nM]
1 | B1 | ~60
2 | B2 | 21.6 ± 1
3 | B3 | 55 ± 9
4 | B4 | 10.1 ± 0.8
5 | B5 | 9 ± 0.5
6 | B6 | 15.7 ± 1
7 | B7 | 8.4 ± 1.2
8 | B8 | 12.1 ± 0.7
9 | B9 | 22.1 ± 2.3
10 | B10 | 8.3 ± 0.5
11 | B11 | 3.62 ± 0.33
12 | B12 | 17.7 ± 1.2
13 | B13 | 6.4 ± 0.6
14 | B14 | 19 ± 1.8
15 | B15 | 25 ± 4
16 | B16 | 24.3 ± 3.1
17 | B17 | 18.9 ± 1.4

Row | Binder | Kd [nM]
18 | B18 | 9.7 ± 0.8
19 | B19 | 24.9 ± 1.4
20 | B20 | 13.4 ± 0.7
21 | B21 | 60 ± 17
22 | B22 | 43 ± 4
23 | B23 | 56 ± 13
24 | B24 | 34.8 ± 2.2
25 | B25 | 16.9 ± 2.2
26 | B26 | 17.6 ± 2.5
27 | B27 | 14.7 ± 0.8
28 | B28 | 31 ± 2.8
29 | B29 | 14.4 ± 0.8
30 | B30 | 15.9 ± 3.1
31 | B31 | 44 ± 8
32 | B32 | 39 ± 12
33 | B33 | 4.7 ± 0.4
34 | B34 | 5.68 ± 0.27
